Results taken from a protein production outcome set (Wang et al. 2014).

Assay: label from the status in PepcDB records

Row | Sequence | protein production
1 | MSGMVDLKEFLAELGKTQKELKNVIEQAKDIGLELKTNSKMTPEQAGKLYKYIVDGIKEQIQANQPAKNPEQDNKDDLNTAVASKSLNKKVSKTPKKEETKSQPKPKKTKEKKKEAPTPIAKKKGGIEIVNTFENQTPPTENTPKVVSHSQIEKAKQKLQEIQKSREALNKLTQSNANNASNANNAKKEISEVKKQEQEIKRHENIKRRTGFRVIKRNDEVENESENSVTESKKPTQSAAAIFEDIKKEWQEKDKQEAKKAKKPSKPKATPTAKNNKSHKIDFSDARDFKGNDIYDDETDEILLFDLHEQDNFNKEEEEKEIRQNINDRVRVQRKNPWMNESGIKRQSKKKRAFRNDNSQKVIQSTTAIPEEVRVYEFAQKANLNLADVIKTLFNLGLMVTKNDFLDKDSIEILAEEFHLEISVQNTLEEFEVEEVLEGVKKERPPVVTIMGHVDHGKTSLLDKIRDKRVAHTEAGGITQHIGAYMVEKNDKWVSFIDTPGHEAFSQMRNRGAQVTDIAVIVIAADDGVKQQTIEALEHAKAANVPVIFAMNKMDKPNVNPDKLKAECAELGYNPVDWGGEHEFIPVSAKTGDGIDNLLETILIQAGIMELKAIEEGSARAVVLEGSVEKGRGAVATVIVQSGTLSVGDSFFAETAFGKVRTMTDDQGKSIQNLKPSMVALITGLSEVPPAGSVLIGVENDSIARLQAQKRATYLRQKALSKSTKVSFDELSEMVANKELKNIPVVIKADTQGSLEAIKNSLLELNNEEVAIQVIHSGVGGITENDLSLVSSSEHAVILGFNIRPTGNVKNKAKEYNVSIKTYTVIYALIEEMRSLLLGLMSPIIEEEHTGQAEVRETFNIPKVGTIAGCVVSDGVIARGIKARLIRDGVVIHTGEILSLKRFKDDVKEVSKGYECGIMLDNYNEIKVGDVFETYKEIHKKRTL | failed
2 | MSGPTWLPPKQPEPSRVPQGRALPRGTLGPPTAHGATLQPHPRVNFCPLPPEQCYQPPGVPEDRGPTWVGSHGAAQRLQGLPPDRGVIHPGSLDAEIDSLTSMLADLDGSRSHAPRRPDRQAFEAPPPHAYRGGSLKPSGGAVPAPMLPASPYGGPTPASYATASTPAGPAFPVQVKVAQPVRGCGLPRRGASQASGPLPGPHFPLTGRGEVWGAGYRSHREPGPGVKEGAAGVHNPAGGGRRGGHEPQGPLSQPPEEELERLTKKLVHDMNHPPSGEYFGRCGGCGDDVVGDGAGVVALDRVFHTGCFVCSTCRAQLRGQHFYAVERRAYCESCYVATLEKCSTCSEPILDRILRAMGKAYHPGCFTCVVCHRGLDGIPFTVDATSQIHCIEDFHRKFAPRCSVCGGAIMPEPGQEETVRIVALDRSFHIGCYKCEECGLLLSSEGECQGCYPLDGHILCKACSAWRIQELSATVTTDC | failed
3 | MSGQHGHDHSHAVVTQGNAKKLTIALSLTVTFLIVEVVAGFITQSLALLSDAAHMFTDAAALAIALAAIQVAKRPADDKRTFGYQRFEILAALFNASMLFMVAIYILYEAYQRFTHPPEIQSLGMLLVAVIGLIINLISMKILVSSAQDSLNVKGAYLEVLSDALGSVGVILGALVIYFTQWYWVDTLVAVLIGFWVLPRTWILLKQSINILLEGVPEEVDIEKLRDDLLALEGVESIHQLKVWAITSKNVHLTVHLFAPQADRNRLYRTAYEMLSHEHGIAEITLQIEEDECLAHSHTHIEKNHQH | failed
4 | MSGREFLQKLLDGERVEWKALGEIIQLEKGRQLNKDLLSSSGRYPAYNGGMSYSGFTDSYNYSENKTIISQGGASAGFVNFVTTKFYANAHCYVVLPDTEVVDNRYIYHFLKLNEERLTSCQHGAGIPALRASEITSLKIPIPCPDNPKKSLAIQAEIVRILDAFTELTAELTAELTARKKQYAYYRDRLLTFTTPPYGHPSKGGELFSLFGHPSEGGELFTPYGHSVEERELNSPSLKGWQAQPDGVVPVEWKTLGEVGHFIRGSGIQKSDFKASGVGCIHYGQIHTHYGTWTTETKSFIDPEFANRLKKAKPGDLVIATTSEDDDAVAKAVAWIGTEDVAVSTDAYIFRHTANPKYMSYFFQTDMFQEQKKPYITGTKVRRISGDNLAKILIPIPPLAEQERIVAILDQFDALTNSLTEGLPREIELRQKQYAYYRDLLFSFPKASFGGVPEGRDQFPSFGGVPEGRGGLNALEHHHHHH | failed
5 | MSGSAADPPSPDRLAGVFSVSSVRRTDGTVQYLGNPLVPPDAVAEQLRPVFRQRGYDVRLEELGPESATGTTVTSNGETTVVDDPGANDSIAPGGAVNTRPGQYALVAEPVGTDTGGVPWLNIGLLLATIASTLYVGASAWYYIPVAKNPLRVFEAWPFMVAMLGVLGIHELGHYAAARYHGVDVTLPYFIPFPSYLGTMGAVINIRGRIPDRTALFDIGVAGPLAGLVATTIVTVIGLSIDPITVPERVANSDTGVIITFNYPLLFQALEALVNALGLGTEVGPGESVHPIVFAGWAGMFFTFLNLLPVGQLDGGHIVRSIVGRRQETIAAAVPGALFALAGYLYFTRDPPPVGFGVWGLWVFWGLFATGLAYAGPARPTVDTALDRRRALLGLFTFLLGIACFTPVPFEISAV | failed
6 | MSGSPGIESVPGPELPKIEFLDRFNAKNQKFYAENDARFKDSPLLKKLLENSKLNKEKNEREIQDKYCLRGAEWGVGDCSTTGMTDEEKEKFITMLKKKTGVE | failed
7 | MSGVKIAFIRHHDLWIKVDGKEKQLTKGEYITGPKWSYDGEWLAYVKGEKQNTLELYRLKDGKKVTPFHSEVSNYQWSPTENIIAFIFTGTLHTFKVEKKNADFENVSAGVGDYAWYPNGKKFLVSSEAHLLPTGWTGAQLYEVQKDAHMNPHKMKHLYALPNEHDDFLALVASGFQWSPDQKWISFLAVPTASWSADSNTLCLVRADGSRFEKVDQMLLNTQWFKWAPANNILAYIEGSGRVALENKHLKVKELPALQQNTFTPKGYVDWDFTWKNDNVIIVSRAKEAGIETPPEKRPLPSLYEIDSTSDEQHRITKPPHRQGDYHPLFMNKSNQLIWIRSDRKKADVWLAHKDGKHEMKWIENIDVPLEHHHHHH | failed
8 | MSHLYDPTTQYYTGEYPKQKQPAPGVQAKMTPVPDCGEKSYVGSGRLKDRKALVTGGDSGIGRAAAIAYAREGADVAINYLPAEEEDAQQVKALIEECGRKAVLLPGDLSDESFARSLVHKAREALGGLDILALVAGKQTAIPEIKDLTSEQFQQTFAVNVFALFWITQEAIPLLPKGASIITTSSIQAYQPSPHLLDYAATKAAILNYSRGLAKQVAEKGIRVNIVAPGPIWTALQISGGQTQDKIPQFGQQTPMKRAGQPAELAPVYVYLASQESSYVTAEVHGVCGGEHLG | not failed
9 | MSHSIEQLSINTIRTLSIDAIEKANSGHPGMPMGAAPMAYTLWTQFMKHNPNNPTWFNRDRFVLSAGHGSMLLYSLLHLSGYDVTMDDLKNFRQWGSKTPGHPEYGHTAGVDATTGPLGQGIATAVGMAMAERHLAAKYNRDAYNIVDHYTYAICGDGDLMEGVSAEASSLAAHLQLGRLVVLYDSNDISLDGDLNRSFSESVEDRYKAYGWQVIRVEDGNDIEAIAKAIEEAKADEKRPTLIEVRTTIGFGSPNKSGKSASHGSPLGVEETKLTKEAYAWTAEQDFHVAEEVYENFRKTVQDVGETAQAEWNTMLGEYAQAYPELANELQAAMNGLLPEGWEQNLPTYELGSKAATRNSSGAVINAIAESVPSFFGGSADLAGSNKTYMNNEKDFTRDDYSGKNIWYGVREFAMGAAMNGIALHGGLKTYGGTFFVFSDYLRPAIRLAALMQLPVTYVFTHDSIAVGEDGPTHEPIEQLAALRAMPNVSVIRPADGNESVAAWRLALESTNKPTALVLTRQDLPTLEGAKDDTYEKVAKGAYVVSASKKETADVILLATGSEVSLAVEAQKALAVDGVDASVVSMPSMDRFEAQTAEYKESVLPKAVTKRFAIEMGATFGWHRYVGLEGDVLGIDTFGASAPGEKIMEEYGFTVENVVRKVKEML | not failed
10 | MSHSLKDFLEACETLGTLRLIVTSSAAVLEARGKIEKLFYAELAKGKYANMHTEGFEFHLNMEKITQVKFETGEAKRGNFTTYAIRFLDEKQESALSLFLQWGKPGEYEPGQVEAWHTLKEKYGEVWEPLPVQL | not failed
11 | MSHTKPSIAILGAGRVGSSLARSAVAAGYEVKVAGSGAVDKIALTAEILMPGAVPSTADQAVKDADIVFLAVPLHKFRSVNPATLEGKIVIDTMNHWVPVNGELEEIDQDPRSTSEIIAEFFAGSTMVKSFNHIGYHEIEQDAGTGRAIAYATDDVDAGAQVAQLIKSFGFVPLNIGALENGRILEPGQEAFGAHLNKDSRLELVNQR | failed
12 | MSHVSYAEPPAQGWDIHCHTVFSDGTETPRTLVEQARKLGLHGVAIADHDTTAGWDEATEASEEIGLPLLLGTEITAVDEDVSVHMLAFQYDPSNEHISSMFANTRAARLRRTKRMVERLSQDFPITWDDVLAQVKEGERTTIGRPHIADALVAAGVYETRSDAFADAVSAKSKYYIPTPSPSTHEVIAAVKGAGGVVVAAHAGDPQRNRRLLSDEQLDAMIADGLDGLEVWHRGNPPEQRERLLTIAARHDLLVTGGSDWHGKGKPNGLGENLTDDDTVREILCRGVDLIGRVGSSHAA | not failed
13 | MSIAIRIATIGALCAASAALSGCGSVGAASGALAGAATGLVTANPAVGVGVGIAVQAATDEAVNRTMKQLHQNQQDAIAKAAGSLAVGEVKPWKVKNTLPLENGEGEVRVTRAYSTALALCKEFAFSVKDGDKADWYFANACQQGTHWKWASAEPAVDRWGNLQ | failed
14 | MSIDFYNQNASSFYASTVEVDSSSLLEQFTPYLPKGGSVLDAGCGSGRDSKRLIELGFHVDAFDASAALATLAQQLLGKPVRVATFMQFTSTLQYDGIWACASLLHVSKASLPDAFAHLASMLKSGGAFYCSFKYGQGEVERDGRSFTHCDEALLAELLTGSPLVIDKVWLTLEHHHHHH | failed
15 | MSIEPVFILVRPQMGENIGAAARAMLNFGLGRLRIVDPRDGWPNPKAVAMASGAGRLLDHAGLFPTVAEAIRDCDYVFATTARGRELTKPVMTPERAMAHGRALTGEGRRVGILFGPERTGLENEDVALANAIVTVPVNPEFFSLNLAQCVLLLAYEWRRQHDETPPEVIDMARVDFASGLEVEKLGD | failed
16 | MSIEVPISIPKTLIIIPAYNEEEAIADTLTRLLELKQHFTALSICVINDGSQDKTAQIVKNFPVHLINLPYNLGIGSAVQTGYKYAYENGYDIAIQFDADGQHNPDDLYKIIQPIAEGQCDMVLGSRFTEKTAYKGSISRRIGIFYFTALLKVLTKQTFMDPTSGYRAINREVITIFAHNYPKDYPEPEVLIHLKKKKLRINEISVNMQERQGGQSSITPLKSAYYMIKVSLAILMQKIVKGLEHHHHHH | failed
17 | MSIGFYANDNFMGKSHIMDKSGKPHIGISKYPVIITQAKQQKLRKAINEARESNDILMVDFPRQMLITEHDDELVKSLGESLEEDLEYLGAIFYGKSKYVDSITGKFSLWRSNNVKVNLEHHHHHH | failed
18 | MSIIEDNKISFVIPTINEEKTIGSVIDGIHENFPNAEIILVDTNSTDKTKEIAKSKGATVIEEPRKGYGRAYQTGIPAAKGDIIVCMDGDGTYPTDIVKPLIEILILDKVDFISCDRITFRTSTNYTTLHYVGNMVLNLTIRILFKVRMVDSQSGMWIFRSELYKKMKNLGYGMSFSQNIKIEAVRHGVFIEIPIRYGVRITKPKLKTWHDGFHNLFALFIKRVSELEHHHHHH | not failed
19 | MSIQMATSNDLEWINNQYDSIGFVRSDLKRDKVAIITYNNEYAGIGRLVQIDEDTLEMGGILILPKFRGLQLAGELVSFLVETAKKLQVQHVYCLPFEELENFYKKYGYTEVDTTKEFVHPIILEKYNWCLDHYEKHVLLFKL | failed
20 | MSIRIDRQRCIGCGKCAEICPGNLIVIDEDKKAFVRDPRDCWGCAACVKECKFSAIRYFLGAEIGGNGTTMYVEKENDEIMYWYFEKPSGEKEMIVQNLKDNTTYLEHHHHHH | failed
